Assay results: PMC11670205 (Frontiers in Immunology, 2024)
Values belong to the molecule of their own block, whether it stands above or below them.

Key:
[1] = biological target: human TSLP receptor complex composed of IL-7Rα and TSLPR expressed on cell surface of transfected HEK293T (human) (UniProt Q9HC73)
[2] = biological target: T1, recombinant mouse TSLP (Mus musculus, UniProt Q9JIE6); experiment: ELISA; recombinant TSLP coated at 1 μg/mL in DPBS pH 7.2 overnight at 4°C; antibodies in serial 3-fold dilutions from 1 μg/mL, 2 hours at room temperature; HRP anti-human IgG detection; settings: both partners purified
T1 construct: thymic stromal lymphopoietin, mouse; also called murine TSLP; source: bought: AcroBiosystems

[3] = biological target: T2, recombinant cynomolgus monkey TSLP (Macaca fascicularis, UniProt A0A7N9CAT7); experiment: as above; settings: both partners purified
T2 construct: thymic stromal lymphopoietin, cynomolgus monkey; source: bought: AcroBiosystems

T1 sequence (Q9JIE6 20-140): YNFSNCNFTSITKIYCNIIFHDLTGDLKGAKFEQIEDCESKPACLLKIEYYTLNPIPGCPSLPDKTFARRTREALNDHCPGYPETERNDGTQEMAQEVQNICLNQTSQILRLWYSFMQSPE
human TSLP receptor complex composed of IL-7Rα and TSLPR expressed on cell surface of transfected HEK293T (human), sequence (Q9HC73 23-371, chain 1 of 2): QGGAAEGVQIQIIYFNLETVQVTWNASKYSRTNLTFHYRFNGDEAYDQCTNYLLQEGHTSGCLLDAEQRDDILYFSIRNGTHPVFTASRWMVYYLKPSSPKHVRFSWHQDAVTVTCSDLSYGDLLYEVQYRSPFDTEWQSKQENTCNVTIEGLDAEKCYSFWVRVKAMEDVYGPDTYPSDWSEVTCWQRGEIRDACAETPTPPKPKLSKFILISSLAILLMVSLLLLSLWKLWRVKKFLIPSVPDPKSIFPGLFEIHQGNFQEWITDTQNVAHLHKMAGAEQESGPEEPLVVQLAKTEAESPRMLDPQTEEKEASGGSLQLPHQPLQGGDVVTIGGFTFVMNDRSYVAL
human TSLP receptor complex composed of IL-7Rα and TSLPR expressed on cell surface of transfected HEK293T (human), sequence (chain, as listed by the source, chain 2 of 2): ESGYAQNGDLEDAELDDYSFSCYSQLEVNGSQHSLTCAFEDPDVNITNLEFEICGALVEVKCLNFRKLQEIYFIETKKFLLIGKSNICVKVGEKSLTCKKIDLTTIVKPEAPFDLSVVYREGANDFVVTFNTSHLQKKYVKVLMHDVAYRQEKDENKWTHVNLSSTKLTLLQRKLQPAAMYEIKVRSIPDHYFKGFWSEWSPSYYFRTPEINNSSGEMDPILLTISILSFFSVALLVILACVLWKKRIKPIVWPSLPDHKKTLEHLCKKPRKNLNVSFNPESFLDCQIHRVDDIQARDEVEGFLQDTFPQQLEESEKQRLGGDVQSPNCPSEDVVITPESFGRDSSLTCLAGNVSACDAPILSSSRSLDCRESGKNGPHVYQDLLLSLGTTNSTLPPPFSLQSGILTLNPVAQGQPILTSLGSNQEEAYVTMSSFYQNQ

EC50 of TSLP-driven STAT5 luciferase reporter gene expression in HEK293T cells transfected with TSLPR and IL-7Rα [1]: 1.1 ng/mL
Molecule: recombinant human thymic stromal lymphopoietin (from UniProt Q969D9 29-159) (ligand)

binding result [2]: no binding (tested: 1 μg/mL) | binding result [3]: binds
B1: tezepelumab analogue antibody (antibody, V domains shown)
VH: QMQLVESGGGVVQPGRSLRLSCAASGFTFRTYGMHWVRQAPGKGLEWVAVIWYDGSNKHYADSVKGRFTITRDNSKNTLNLQMNSLRAEDTAVYYCARAPQWELVHEAFDIWGQGTMVTVSS
VL: SYVLTQPPSVSVAPGQTARITCGGNNLGSKSVHWYQQKPGQAPVLVVYDDSDRPSWIPERFSGSNSGNTATLTISRGEAGDEADYYCQVWDSSSDHVVFGGGTKLTVL
notes: heavy chain of tezepelumab as deposited in PDB 5J13; rest of the heavy chain constant region (hinge, Fc) beyond what the PDB entry holds; light chain of tezepelumab as deposited in PDB 5J13; It was captured by anti-Fc probes and detected with anti-human IgG; also called AMG157; MEDI9929; source: Expi293F, transfected, purified (MabSelect SuRe, desalting column)
